Test results as given in patent US20250051427A1, “METHODS OF USING AN ANTI-AMYLOID BETA PROTOFIBRIL ANTIBODY AND ANTI-TAU ANTIBODY” (published 2025).

Experiments:
[1] = biological target: T1, MTBR-tau (microtubule binding region tau) in CSF (Homo sapiens); experiment: E2814-bound and free MTBR-tau in CSF after a single E2814 infusion of 10 mg/kg
[2] = biological target: T1, MTBR-tau (microtubule binding region …); experiment: E2814-bound and free MTBR-tau in CSF after a single E2814 infusion of 3 mg/kg
[3] = biological target: T1, MTBR-tau (microtubule binding region …); experiment: E2814-bound and free MTBR-tau in CSF after a single E2814 infusion of 30 mg/kg

B1: E2814 (antibody, V domains shown)
VH: EVQLLESGGGLVQPGGSLRLSCAASGYTFTTYWITWVRQAPGKGLEWVSDIYPGSSISNYNEKFKSRFTISVDNSKNTLYLQMNSLRAEDTAVYYCAREDGYDAWFAYWGQGTLVTVSS
VL: DIQMTQSPSSLSASVGDRVTITCRSSQSILHSNGNTYLEWYQQKPGKAPKLLISKVSNRFSGVPSRFSGSGSGTDFTLTISSLQPEDFATYYCFQGSHVPFTFGQGTKLEIKR
B1 was tested, and the “target engagement (TE), fraction (%) of bound MTBR-tau relative to total MTBR-tau” value [1] was about 45%, the “target engagement (TE), fraction (%) of bound MTBR-tau relative to total MTBR-tau” value [2] was about 26% and the “target engagement (TE), fraction (%) of bound MTBR-tau relative to total MTBR-tau” value [3] was about 60%.
